Reference: US20210316003A1 (Immunomedics, Inc., priority 2020, published 2021)

What was measured:
[1] = tested on: patients with mSCLC; settings: 53 mSCLC patients (Gray et al., 2017); cited from earlier work
[2] = tested on: patients with metastatic TNBC; assay: Phase I/II trial (NCT01631552), metastatic TNBC: adverse events; format: in vivo, human; settings: N = 108
From the text: (§1) Patients with relapsed/refractory TNBC who had previously failed at at least one prior line of therapy were enrolled in a single-arm, multicenter trial (Bardia et al., 2019, N Engl J Med 380:741-51). The present study reports on 108 patients who had failed at least two prior lines of therapy (median three prior therapies) (Bardia et al., 2019, N Engl J Med 380:741-51). […] For severe treatment-related adverse events, a 25% dose reduction was allowed after the first occurrence, 50% after the second and discontinuation after the third. Of the 108 patients, 107 were female and 1 was male, with a median age of 55. Prior therapies included treatment with taxanes (98%), anthracyclines (86%), platinum agents (69%), gemcitabine (55%), eribulin (45%) and checkpoint inhibitors (17%). Tumor staging was performed by computed tomography (CT) and MRI at baseline, followed up at 8 week intervals from the start of treatment until disease progression.

[3] = tested on: patients with mSCLC; assay: Phase I/II trial (NCT01631552), mSCLC: safety and tolerability; settings: N = 53
Procedure: Doses of 8 or 10 mg/kg were given on days 1 and 8 of a 21-day cycle, with contingencies to delay (maximum of 2 weeks). Toxicities were managed by supportive hematopoietic growth-factor therapy for blood cell reduction, dose delays and/or modification as specified in the protocol (e.g., 25% of prior dose), or by standard medical practice. Treatment was continued until disease progression, initiation of alternative anticancer therapy, unacceptable toxicity, or withdrawal of consent.
Safety evaluations were conducted during scheduled visits or more frequently if warranted.
Statistical Analyses—The data included in the analyses were derived from patients enrolled from November 2013 to June 2016, with follow-up through Jan. […] The frequency and severity of adverse events (AEs) were defined by MedDRA Preferred Term and System Organ Class (SOC) version 10, with severity assessed by NCI-CTCAE v4.03.

[4] = tested on: patients with non-small cell lung cancer (NSCLC); settings: cited from earlier work
[5] = tested on: patients with metastatic TNBC; settings: second line or later (Bardia et al., 2019); cited from earlier work
[6] = tested on: TNBC xenografts; settings: nude mice bearing TNBC xenografts, independent of BRCA1/2 mutation status; cited from earlier work
[7] = tested on: patients with metastatic TNBC; assay: Phase I/II trial (NCT01631552), metastatic TNBC: efficacy by RECIST 1.1; format: in vivo, human
From the text: as §1

[8] = In vivo animal studies: release of SN-38 from the conjugate
From the text: Plasma CEA and CA19-9 correlated with responses.

[9] = tested on: patients with diverse metastatic cancers; assay: Phase I trial and phase II extension in diverse epithelial cancers: related adverse events (CTCAE v 4.0); format: in vivo, human

sacituzumab govitecan
Median OS [1]: 7.5 months | Median PFS [1]: 3.7 months | Median response duration [1]: 5.7 months | ORR [1]: 14% | Patients with tumor shrinkage from baseline [1]: Sixty | Anemia, % of patients [2]: 50% | Anemia, grade 3 [2]: 11% | Decreased white blood cell count, grade 4 [2]: 3% | Diarrhea, % of patients [2]: 62% | Diarrhea, grade 3 [2]: 8% | Fatigue, % of patients [2]: 55% | Fatigue, grade 3 [2]: 8% | Hyperglycemia, grade 4 [2]: 1% | Nausea, % of patients [2]: 67% | Nausea, grade 3 [2]: 6% | Neutropenia, % of patients [2]: 64% | Neutropenia, grade 3 [2]: 26% | Neutropenia, grade 4 [2]: 16% | Vomiting, % of patients [2]: 49% | Vomiting, grade 3 [2]: 6% | Treatment-related deaths [3]: No treatment-related deaths were observed | ORR ([4]; 47 response assessable patients, median of three prior therapies): 19% | Clinical benefit rate ([4]; 47 response assessable patients): 43% | Median OS [4]: 9.5 months | Median PFS [4]: 5.2 months | Median progression-free survival (PFS) [5]: 5.5 months | Overall survival (OS) [5]: 13.0 months | Response rate [5]: 33.3% | Tumor growth in combination with olaparib, rucaparib and talazoparib [6]: Synthetic lethality and synergistic inhibition of tumor growth | Response rate among patients who had failed previous checkpoint inhibitor therapy [7]: 44% | Complete responses (CR) ([7]; 10 mg/kg, N = 108): 2.8% | Median overall survival ([7]; 10 mg/kg, N = 108): 13.0 months | Median progression-free survival ([7]; 10 mg/kg, N = 108): 5.5 months | Estimated probability that a patient would exhibit a response at 6 months ([7]; 36 responders): 59.7% | Estimated probability that a patient would exhibit a response at 12 months ([7]; 36 responders): 27.0% | Median duration of response ([7]; 36 responders): 7.7 months | Median time to response ([7]; 36 responders): 2.0 months | Patients with long-term responses of more than 12 months ([7]; at data cutoff): 6 | Response rate (CR+PR) ([7]; ≥2 prior lines, 10 mg/kg days 1 and 8 of 21 day cycle, N = 108): 33.3% | SN-38 released from the conjugate daily [8]: 50% | Diarrhea ≥G3 ([9]; 49 pts reporting related AE): 9% | Fatigue ≥G3 ([9]; 49 pts reporting related AE): 9% | Nausea ≥G3 ([9]; 49 pts reporting related AE): 0% | Neutropenia ≥G3 ([9]; 49 pts reporting related AE): 28% | Vomiting ≥G3 ([9]; 49 pts reporting related AE): 2% | Abdominal pain, Grade 3, patients ([9]; related AE, N = 47): 0 | Abdominal pain, Grade 4, patients ([9]; related AE, N = 47): 0 | Abdominal pain, TOTAL ([9]; related AE, N = 47): 11% | Alopecia, TOTAL ([9]; related AE, N = 47): 40% | Anemia, Grade 3, % ([9]; related AE, N = 47): (4%) | Anemia, Grade 3, patients ([9]; related AE, N = 47): 2 | Anemia, Grade 4, patients ([9]; related AE, N = 47): 0 | Anemia, TOTAL ([9]; related AE, N = 47): 13% | Deep vein thrombosis, Grade 3, % ([9]; related AE, N = 47): (2%) | Deep vein thrombosis, Grade 3, patients ([9]; related AE, N = 47): 1 | Deep vein thrombosis, Grade 4, patients ([9]; related AE, N = 47): 0 | Deep vein thrombosis, TOTAL ([9]; related AE, N = 47): 2% | Diarrhea, Grade 3, % ([9]; related AE, N = 47): (9%) | Diarrhea, Grade 3, patients ([9]; related AE, N = 47): 4 | Diarrhea, Grade 4, patients ([9]; related AE, N = 47): 0 | Diarrhea, TOTAL ([9]; related AE, N = 47): 47% | Dysgeusia, Grade 3, patients ([9]; related AE, N = 47): 0 | Dysgeusia, Grade 4, patients ([9]; related AE, N = 47): 0 | Dysgeusia, TOTAL ([9]; related AE, N = 47): 15% | Fatigue, Grade 3, % ([9]; related AE, N = 47): (9%) | Fatigue, Grade 3, patients ([9]; related AE, N = 47): 4 | Fatigue, Grade 4, patients ([9]; related AE, N = 47): 0 | Fatigue, TOTAL ([9]; related AE, N = 47): 55% | Febrile Neutropenia, Grade 3, % ([9]; related AE, N = 47): (2%) | Febrile Neutropenia, Grade 3, patients ([9]; related AE, N = 47): 1 | Febrile Neutropenia, Grade 4, % ([9]; related AE, N = 47): 4% | Febrile Neutropenia, Grade 4, patients ([9]; related AE, N = 47): 2 | Febrile Neutropenia, TOTAL ([9]; related AE, N = 47): 6% | Hypokalemia, Grade 3, % ([9]; related AE, N = 47): (2%) | Hypokalemia, Grade 3, patients ([9]; related AE, N = 47): 1 | Hypokalemia, Grade 4, patients ([9]; related AE, N = 47): 0 | Hypokalemia, TOTAL ([9]; related AE, N = 47): 11% | Nausea, Grade 3, patients ([9]; related AE, N = 47): 0 | Nausea, Grade 4, patients ([9]; related AE, N = 47): 0 | Nausea, TOTAL ([9]; related AE, N = 47): 53% | Neutropenia, Grade 3, % ([9]; related AE, N = 47): (24%) | Neutropenia, Grade 3, patients ([9]; related AE, N = 47): 11 | Neutropenia, Grade 4, % ([9]; related AE, N = 47): 4% | Neutropenia, Grade 4, patients ([9]; related AE, N = 47): 2 | Neutropenia, TOTAL ([9]; related AE, N = 47): 43% | Pyrexia, Grade 3, patients ([9]; related AE, N = 47): 0 | Pyrexia, Grade 4, patients ([9]; related AE, N = 47): 0 | Pyrexia, TOTAL ([9]; related AE, N = 47): 13% | Vomiting, Grade 3, % ([9]; related AE, N = 47): (2%) | Vomiting, Grade 3, patients ([9]; related AE, N = 47): 1 | Vomiting, Grade 4, patients ([9]; related AE, N = 47): 0 | Vomiting, TOTAL ([9]; related AE, N = 47): 32% | WBC Decrease, Grade 3, % ([9]; related AE, N = 47): (2%) | WBC Decrease, Grade 3, patients ([9]; related AE, N = 47): 1 | WBC Decrease, Grade 4, patients ([9]; related AE, N = 47): 0 | WBC Decrease, TOTAL ([9]; related AE, N = 47): 6%
